This note sets out measurements from patent US20230035403A1, “Method For Determining Responsiveness To Prostate Cancer Treatment” (Janssen Biotech, Inc., priority 2020, published 2023).

B1: P73 9-mer … (peptide)
peptide: LLERNSFEV
modifications: here or on the partner: biotinylated heavy chain
B2: P61 9-mer … (peptide)
peptide: CYLGRQKRF
modifications: here or on the partner: biotinylated heavy chain
B3: P87 9-mer … (peptide)
peptide: FLFLLLPLS
modifications: here or on the partner: biotinylated heavy chain
B4: P98 9-mer … (peptide)
peptide: IVWWCPMSR
modifications: here or on the partner: biotinylated heavy chain
B5: P56 9-mer … (peptide)
peptide: RAKCKFSIL
modifications: here or on the partner: biotinylated heavy chain
B6: P46 9-mer … (peptide)
peptide: CPMSRLRLA
modifications: here or on the partner: biotinylated heavy chain
B7: P82 9-mer … (peptide)
peptide: RVGNCKHLK
modifications: here or on the partner: biotinylated heavy chain
B8: P22 9-mer … (peptide)
peptide: QLIAMDSAI
modifications: here or on the partner: biotinylated heavy chain
B9: P97 9-mer … (peptide)
peptide: LMAQRLLLR
modifications: here or on the partner: biotinylated heavy chain
B10: P19 9-mer … (peptide)
peptide: IPVLTRWPL
modifications: here or on the partner: biotinylated heavy chain
B11: P60 9-mer … (peptide)
peptide: YLRRQKRLK
modifications: here or on the partner: biotinylated heavy chain
B12: P58 9-mer … (peptide)
peptide: HVPKILSGK
modifications: here or on the partner: biotinylated heavy chain

This experiment deals with HLA-B*08:01 (human). The experiment in a line: UV-induced peptide exchange, HLA class I ELISA; Pos peptide = 100%. Conditions: remark: other sources report otherwise.
In the case of B1, the exchange rate with Pos peptide came to 2.6%. Then B2, with 3.6%; and B3, with 3.1%; and B4, with 2.4%. Then B5, with 38%; and B6, with 14.5%. Then B7, with 1.4%; and B8, with 3.9%. For B9, the exchange rate with Pos peptide was found to be 2.7%. Then B10, with 14.5%. Take B11: the exchange rate with Pos peptide stood at 10.2%. Take B12: the exchange rate with Pos peptide was 5.3%.
